T1: human CEACAM19, full-length, on transfected HeLa cells (human, UniProt Q7Z692 33-300)
T1 construct: also called TPP-4186; HeLa human CEACAM19
T1 sequence: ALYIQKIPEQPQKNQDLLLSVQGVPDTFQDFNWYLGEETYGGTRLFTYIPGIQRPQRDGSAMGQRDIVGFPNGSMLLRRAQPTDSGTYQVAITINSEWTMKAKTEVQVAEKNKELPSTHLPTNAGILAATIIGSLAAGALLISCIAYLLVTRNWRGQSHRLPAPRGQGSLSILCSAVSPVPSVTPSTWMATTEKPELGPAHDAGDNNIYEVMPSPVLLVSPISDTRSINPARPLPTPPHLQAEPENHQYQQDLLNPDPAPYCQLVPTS

T2: human CEACAM1, extracellular (mature form), R&D Systems 2244-CM (human, UniProt P13688 35-428)
T2 construct: used biotinylated in some assays; also called TPP-1437; hC1
T2 sequence: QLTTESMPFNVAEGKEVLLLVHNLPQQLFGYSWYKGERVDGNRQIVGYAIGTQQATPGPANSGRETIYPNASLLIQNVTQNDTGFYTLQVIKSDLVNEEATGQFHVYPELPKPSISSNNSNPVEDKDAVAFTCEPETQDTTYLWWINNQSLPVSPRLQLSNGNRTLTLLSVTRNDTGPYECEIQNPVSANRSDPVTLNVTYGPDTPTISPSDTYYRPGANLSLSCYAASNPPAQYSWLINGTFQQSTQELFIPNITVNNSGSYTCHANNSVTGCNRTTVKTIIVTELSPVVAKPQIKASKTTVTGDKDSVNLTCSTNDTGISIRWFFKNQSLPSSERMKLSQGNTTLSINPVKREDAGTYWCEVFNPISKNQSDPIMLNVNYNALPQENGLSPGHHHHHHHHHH

T3: Macaca fascicularis CEACAM6, extracellular (mature form), obtained by Factor Xa cleavage of TPP-2443 (Macaca fascicularis)
T3 construct: used biotinylated in some assays; also called APP-319; Cynomolgus CEACAM6
T3 chain: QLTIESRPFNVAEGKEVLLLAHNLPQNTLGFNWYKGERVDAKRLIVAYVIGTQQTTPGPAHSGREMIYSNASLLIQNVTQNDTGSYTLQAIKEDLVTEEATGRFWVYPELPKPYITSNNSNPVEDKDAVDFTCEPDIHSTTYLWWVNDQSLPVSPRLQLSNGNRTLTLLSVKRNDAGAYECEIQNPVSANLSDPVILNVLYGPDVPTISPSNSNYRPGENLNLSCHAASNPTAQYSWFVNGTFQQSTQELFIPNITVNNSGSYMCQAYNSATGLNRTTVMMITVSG


What was measured:
[1] = molecular target: T1, human CEACAM19, full-length, on …; assay: FACS, transfected HeLa cells
In short: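 Antibody binding to transfected HeLa cells was measured by FACS on a Canto II or FACS Array instrument. For half maximal binding (EC₅₀), primary antibodies were titrated from 0.1 nM to 100 nM. Median fluorescence intensity was plotted against log concentration, and curves were fitted in Graph Pad prism. Cells had been released with EDTA dissociation buffer and stained at 4° C.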

[2] = molecular target: T2, human CEACAM1, extracellular (mature …); assay: SPR, antibody captured, antigen as analyte
Method: Surface plasmon resonance (SPR) experiments for quantitative binding analyses were performed either using a Biacore T100, Biacore T200 or a Biacore 4000 instrument (GE Healthcare Biacore, Inc.) equipped with Series S Sensor Chips CM5 (GE Healthcare Biacore, Inc.). Binding assays were carried out at 25° C. with assay buffer HBS-EP+(10 mM HEPES pH 7.4, 150 mM NaCl, 3 mM EDTA, 0.05% Surfactant P20). Antibodies were captured with an anti-hIgG capture antibody covalently immobilized to the chip surface via amine coupling chemistry. Reagents for amine coupling (1-ethyl-3-(3-dimethylaminopropyl) carbodiimide hydrochloride (EDC), N-hydroxysuccinimide (NHS), ethanolamine-HCl pH 8.5) were used from the Amine Coupling Kit (GE Healthcare, product code BR-1000-50). Anti-hIgG, anti-mIgG capture antibodies and immobilization buffer (10 mM sodium acetate pH 5.0) were used from the Human Antibody Capture Kit (GE Healthcare, BR-1008-39) and the Mouse Antibody Capture Kit (GE Healthcare, BR-1008-38), respectively. The sensor chip surface was activated with a freshly prepared solution of 0.2 M EDC and 0.05 M NHS passed over the chip surface for 420 s at a flow rate of 10 μl/min, followed by an injection of anti-hIgG or anti-mIgG capture antibody (dissolved to 25 μg/ml in immobilization buffer) for 180 s at a flow rate of […]. Excess of activated groups were blocked with a 1 molar solution of ethanolamine injected at a flow rate of 10 μl/min for 420 s.
CEACAM antigens were used as analyte to determine KD values. Antibodies were captured for 20 s at a flow rate of 10 μl/min prior to each analyte injection.
Obtained sensorgrams were double-referenced, i.e. in-line reference cell correction followed by buffer sample subtraction.

[3] = molecular target: T3, Macaca fascicularis CEACAM6, …; assay: ELISA, antibody captured, biotinylated antigen titrated
Method: The binding characteristics of these antibodies were also determined by a binding ELISA (monovalent binding, biotinylated CEACAM proteins): A 1:440 dilution of an anti-human IgG (Sigma, 12136) in Coating buffer (Candor) was used to coat black 384-well Maxisorp plates (Nunc) for 1 hour at 37° C. After one wash with PBS/0.05% Tween-20 the plates were blocked with 100% SmartBlock (Candor) for 1 hour at 37° C. After three washes, 2 μg/ml of the relevant antibodies were added to the plate in PBS/0.05% Tween-20/10% SmartBlock. The plates were incubated for 1 hour at room temperature. After three washes dilution series of the relevant biotinylated CEACAM proteins in PBS/0.05% Tween-20/10% SmartBlock were added and the plates were incubated for one hour at room temperature. After three washes 1 μg/ml of Streptavidin-Peroxidase (Sigma, S5512) in PBS/0.05% Tween-20/10% SmartBlock was added and the plates were incubated for 30 minutes at room temperature. After three washes, the plates were developed with Amplex Red (Life Technologies) and fluorescence was read at an emission wavelength of 590 nm. GraphPad Prism 6.0 software was used to calculate EC₅₀ values using four-parameter non-linear curve fit.

Binder | binding result [1] | binding result [2] | EC50 [3] [nM]
TPP-3821 (antibody, human IgG2, kappa, V domains shown, humanized from TPP-3187, human IgG2; also called 3187HU2-hIgG2Kappa) VH: QVTLRESGPALVKPTQTLTLTCTFSGFSLSTYGIGVGWIRQPPGKALEWLAHIWWNDNKYYSTSLKTRLTISKDTSKNQVVLTMTNMDPVDTATYYCARISLPYFDYWGQGTLVTVSS VL: DIQLTQSPSFLSASVGDRVTITCKASQNVGTAVAWYQQKPGKAPKLLIYSASNRYTGVPSRFSGSGSGTEFTLTISSLQPEDFATYYCQQYNNYPLTFGGGTKVEIKR | no binding (tested: 5 µg/ml) | no binding (tested: 200 nM) | 
TPP-3310 (antibody, human IgG2, kappa, humanized from TPP-2971, human IgG2; also called TPP-2971HU1-hIgG2Kappa) heavy: QVTLRESGPALVKPTQTLTLTCTFSGFSLSTYGIGVGWIRQPPGKALEWLAHIWWNDNKYYSTSLKTRLTISKDTSKNQVVLTMTNMDPVDTATYYCARISLPYFDYWGQGTTLTVSSASTKGPSVFPLAPCSRSTSESTAALGCLVKDYFPEPVTVSWNSGALTSGVHTFPAVLQSSGLYSLSSVVTVPSSNFGTQTYTCNVDHKPSNTKVDKTVERKCCVECPPCPAPPVAGPSVFLFPPKPKDTLMISRTPEVTCVVVDVSHEDPEVQFNWYVDGVEVHNAKTKPREEQFNSTFRVVSVLTVVHQDWLNGKEYKCKVSNKGLPAPIEKTISKTKGQPREPQVYTLPPSREEMTKNQVSLTCLVKGFYPSDIAVEWESNGQPENNYKTTPPMLDSDGSFFLYSKLTVDKSRWQQGNVFSCSVMHEALHNHYTQKSLSLSPG light: DIQLTQSPSFLSASVGDRVTITCKASQNVGTAVAWYQQKPGKAPKLLIYSASNRYTGVPSRFSGSGSGTEFTLTISSLQPEDFATYYCQQYSSYPLTFGGGTKVEIKRTVAAPSVFIFPPSDEQLKSGTASVVCLLNNFYPREAKVQWKVDNALQSGNSQESVTEQDSKDSTYSLSSTLTLSKADYEKHKVYACEVTHQGLSSPVTKSFNRGEC | no binding (tested: 5 µg/ml) | no binding (tested: 200 nM) | 0.07
TPP-3820 (antibody, human IgG2, kappa, V domains shown, humanized from TPP-3187, human IgG2; also called 3187HU1-hIgG2Kappa) VH: QVTLRESGPALVKPTQTLTLTCTFSGFSLTTYGIGVGWIRQPPGKGLEWLAHIWWNDNKYYSTSLKTRLTISKDTSKNQVVLTMTNMDPVDTATYYCARISLPYFDYWGQGTLVTVSS VL: DIQLTQSPSFLSASVGDRVTITCKASQNVGTAVAWYQQKPGKAPKLLIYSASNRYTGVPSRFSGSGSGTEFTLTISSLQPEDFATYYCQQYNNYPLTFGGGTKVEIKR | no binding (tested: 5 µg/ml) | no binding (tested: 200 nM) | 
TPP-3705 (antibody, human IgG2, kappa, V domains shown, also called 090E-M007-A09-Mat1-hIgG2-hIgG2Kappa) VH: EVQLVESGGGLVQPGGSLRLSCAASGFTFSLYQMHWVRQAPGKGLEWVSWISFSGGNTGYADSVKGRFTISRDNSKNTLYLQMNSLRAEDTAVYYCARATGYSSPWYLDPWGQGTLVTVSS VL: DIQMTQSPSSLSASVGDRVTITCQASHEIDNYLNWYQQKPGKAPKLLIYDAYWLKTGVPSRFSGSGSGTDFTLTISSLQPEDIATYYCQGYDDLSVTFGGGTKVDIKR |  |  | 0.12
TPP-3707 (antibody, human IgG2, kappa, V domains shown, also called 090E-M007-A09-Mat2-hIgG2-hIgG2Kappa) VH: EVQLVESGGGLVQPGGSLRLSCAASGFTFSLYQMHWVRQAPGKGLEWVSWISFSGGNTGYADSVKGRFTISRDNSKNTLYLQMNSLRAEDTAVYYCARATGYSSPWYLDPWGQGTLVTVSS VL: DIQMTQSPSSLSASVGDRVTITCQASHEIDNYLNWYQQKPGKAPKLLIYDAYWSKTGVPSRFSGSGSGTDFTLTISSLQPEDIATYYCQGYDDLSVTFGGGTKVDIKR | no binding (tested: 5 µg/ml) |  | 0.11
TPP-2971 (antibody, mouse IgG1, V domains shown, murine hybridoma antibody, mouse IgG1; also called 792.15H12C9) VH: QVTLKESGPGILQPSQTLSLTCSFSGFSLSTYGIGVGWIRQPSGKDLEWLAHIWWNDNKYYNTALKSRLTISKDTSNNQVFLKIASVDTADTATYYCARISLPYFDYWGQGTTLTVSS VL: DIVMTQSQKFMSTSVGDRVSITCKASQNVGTAVAWYQQKPGQSPKLLIYSASNRYTGVPDRFTGSGSGTDFTLTISNMQSEDLADYFCQQYSSYPLTFGAGTKLELK |  | no binding (tested: 200 nM) | 
TPP-3714 (antibody, human IgG2, kappa, humanized from TPP-2971, human IgG2; also called TPP-2971HU2-hIgG2Kappa) heavy: QVTLRESGPALVKPTQTLTLTCTFSGFSLSTYGIGVGWIRQPPGKALEWLAHIWWNDNKYYSTSLKTRLTISKDTSKNQVVLTMTNMDPVDTATYYCARISLPYFDYWGQGTLVTVSSASTKGPSVFPLAPCSRSTSESTAALGCLVKDYFPEPVTVSWNSGALTSGVHTFPAVLQSSGLYSLSSVVTVPSSNFGTQTYTCNVDHKPSNTKVDKTVERKCCVECPPCPAPPVAGPSVFLFPPKPKDTLMISRTPEVTCVVVDVSHEDPEVQFNWYVDGVEVHNAKTKPREEQFNSTFRVVSVLTVVHQDWLNGKEYKCKVSNKGLPAPIEKTISKTKGQPREPQVYTLPPSREEMTKNQVSLTCLVKGFYPSDIAVEWESNGQPENNYKTTPPMLDSDGSFFLYSKLTVDKSRWQQGNVFSCSVMHEALHNHYTQKSLSLSPG light: DIQLTQSPSFLSASVGDRVTITCKASQNVGTAVAWYQQKPGKAPKLLIYSASNRYTGVPSRFSGSGSGTEFTLTISSLQPEDFATYYCQQYSSYPLTFGGGTKVEIKRTVAAPSVFIFPPSDEQLKSGTASVVCLLNNFYPREAKVQWKVDNALQSGNSQESVTEQDSKDSTYSLSSTLTLSKADYEKHKVYACEVTHQGLSSPVTKSFNRGEC | no binding (tested: 5 µg/ml) | no binding (tested: 200 nM) | 0.07

— patent US20200181261A1 (Bayer, published 2020)
